The source of these data is patent publication US7585836B2, “Bi-lateral local renal delivery for treating congestive heart failure and for BNP therapy” (priority 2004, dated 2009).

Where “and” joins values, the source holds several entries; their conditions need not be identical. Equal entries are not always repeated.

One data set has as its system canine model. As to the kind of experiment: Blood pressure (mean arterial pressure) response to IR and IV BNP during phenylepherine-induced vasoconstriction. The class given is in vivo. Conditions: Canine #1, constricted vascular state induced by phenylepherine. On the procedure:
(§1) IR versus IV administration of human recombinant BNP (Natrecor® agent, Scios, Inc., Johnson & Johnson) was compared in the canine model (two animals). IR infusion was achieved using the FlowMedica Benephit™ Infusion System (FlowMedica, Inc.). IV and IR administration was performed in each animal sequentially, and the administration periods were separated by five days to allow for washout and re-acclimation of the animals. IV administration was conducted on the first day in both animals. Other than the route of BNP administration, all other parameters were identical between the IV and IR administration days in both dogs.
(§2) Canine #1 received a 2 mcg/kg/min bolus of BNP followed immediately by a 0.15 mcg/kg/min BNP infusion for 90 minutes, followed by a 2-hour washout period. Then vasoconstriction was induced via phenylepherine until mean arterial pressure (MAP) was increased by approximately 30% (approximately 1 hour), and then BNP was again administered at 0.15 mcg/kg/min for 90 minutes.
(§3) Key endpoints included serum levels of BNP (pharmacokinetics, both animals) following IR and IV BNP administration, and blood pressure response in response IR and IV BNP administration (Canine #1 only).

Data set [1] in a line: Pharmacokinetics: serum BNP levels after intra-renal (IR) versus intravenous (IV) BNP administration in the canine model. Conditions: for difference between serum BNP levels with IR versus IV infusion at comparable time points: higher with IV. It counts as in vivo. Here is the method: as §1, §2
Canine #2 received a 2 mcg/kg/min BNP bolus followed immediately by a 4-hour continuous infusion of BNP at 0.15 mcg/kg/min.
as §3

nesiritide [BNP]: the “maximum reduction in mean arterial pressure (MAP)” value worked out at 15% in the data set with canine model (IR BNP 0.15 mcg/kg/min) and 50% in the data set on canine model (IV BNP 0.15 mcg/kg/min). Moreover, the “difference between serum BNP levels with IR versus IV infusion at comparable time points” value in data set [1] (Canine #1, 2 mcg/kg/min bolus then 0.15 mcg/kg/min infusion) is 75% and 66%; in data set [1] (Canine #2, 2 mcg/kg/min bolus then 4-hour infusion at 0.15 mcg/kg/min) it was 61% and 69%. For the same substance, in data set [1] (both canines, same dose), the “lower systemic levels with IR than with IV administration of the same dose” value is on record as 61-75%. In data set [1] (two dogs, given dose IR versus IV), the “average reduction of steady-state plasma BNP levels, IR versus systemic (IV) administration” value came out at 63%.
